Experiments:
[1] = molecular target: Crotalus durissus terrificus venom; assay: ELISA, C.d.t. venom-coated; dilution 1:5
[2] = molecular target: Crotalus durissus terrificus venom; assay: ELISA, C.d.t. venom-coated; dilution 1:625
[3] = molecular target: Crotalus durissus terrificus venom; assay: ELISA, C.d.t. venom-coated; dilution 1:3125
[4] = molecular target: Crotalus durissus terrificus venom; assay: ELISA, C.d.t. venom-coated; dilution 1:125
[5] = molecular target: Crotalus durissus terrificus venom; assay: ELISA, C.d.t. venom-coated; dilution 1:2,500
[6] = molecular target: Crotalus durissus terrificus venom; assay: ELISA, C.d.t. venom-coated; dilution 1:500
[7] = molecular target: Crotalus durissus terrificus venom; assay: ELISA, C.d.t. venom-coated; dilution 1:62,500
[8] = molecular target: Crotalus durissus terrificus venom; assay: ELISA, C.d.t. venom-coated; dilution 1:125; remark: listed apart in the source
[9] = molecular target: Crotalus durissus terrificus venom; assay: ELISA, C.d.t. venom-coated; dilution 1:25
[10] = molecular target: Crotalus durissus terrificus venom; assay: ELISA, C.d.t. venom-coated; dilution 1:25; remark: listed apart in the source
[11] = molecular target: Crotalus durissus terrificus venom; assay: ELISA, C.d.t. venom-coated; dilution 1:312,500
[12] = molecular target: Crotalus durissus terrificus venom; assay: ELISA, C.d.t. venom-coated; dilution 1:625; remark: listed apart in the source
[13] = molecular target: Crotalus durissus terrificus venom; assay: ELISA, C.d.t. venom-coated; undiluted
[14] = molecular target: Crotalus durissus terrificus venom; assay: ELISA, C.d.t. venom-coated; dilution 1:3125; remark: listed apart in the source
[15] = molecular target: Crotalus durissus terrificus venom; assay: ELISA, C.d.t. venom-coated; dilution 1:12,500

Substance: preimmune IgY (from unimmunized hens or supermarket eggs) (antibody)
- absorbance [1]: < 0 OD
- absorbance [2]: < 0 OD
- absorbance [3]: < 0 OD
- absorbance [4]: < 0 OD
- absorbance (412 nm filter) [5]: 0.004 OD
- absorbance (412 nm filter) [6]: 0.005 OD
- absorbance (412 nm filter) [7]: 0.001 OD
- absorbance [8]: 0.003 OD
- absorbance [9]: 0 OD
- absorbance [10]: 0.016 OD
- absorbance (412 nm filter) [11]: 0.01 OD
- absorbance [12]: 0 OD
- absorbance [13]: 0.003 OD
- absorbance [14]: 0.002 OD
- absorbance (412 nm filter) [15]: 0.001 OD
